Test results: PMC3089636

Target: T1, Fur (ferric uptake regulator) (Salmonella enterica (strain for cloning not stated; SL1344/SV5015 used in the paper)) (UniProt A0A0H3NJ13)
T1 sequence: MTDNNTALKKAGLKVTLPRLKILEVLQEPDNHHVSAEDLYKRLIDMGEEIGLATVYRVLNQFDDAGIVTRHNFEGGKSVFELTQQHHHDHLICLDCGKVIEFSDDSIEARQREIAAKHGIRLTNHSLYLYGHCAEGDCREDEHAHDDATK
Assay: EMSA
Conditions: EMSA: 10 mM Bis-Tris/borate pH 7.5, 5% glycerol, 1 mM MgCl2, 40 mM KCl, 100 ug/ml BSA, 0.2 mg/ml salmon sperm DNA, 100 uM MnCl2, 20 nM probe, 10 min 37 C …

Substance	binding	Kd [nM]
AGTTATCTGCGGCAGGACGCTGATGACTATTACTTACAAAGGTTACATTTTCCATATTATCCCTTTGTTGATGTTATTTTAATGTTCCTTACTGGTATCCTACTGA (double strand) [FrgC]	no binding	–
AGTTATCTGCGGCAGGACGCTGATGACTATTACTTACAAAGGTTACATTTTCCATATTATCCCTTTGTTGATGTTATTTTAATGTTCCTTACTGGTATCCTACTGAAAAAATCTGAGTTGTAAATGCTCTTTATTAGCGTGTGTTGGCAATGGTCTGATTGTTACACCAAAAGAACCCAAATTTGGGTAATTTATCTACAGTAGTTTAAGCCCCAATGGGGATGATGGTTCTTTTAATATGTGTTGAGACGCATTATACA (double strand) [FrgB]	no binding	–
FrgA (PhilD)	–	4.5
